Data: article PMC6711530, “Identification of zinc and Zur-regulated genes in Corynebacterium diphtheriae”

T1: Zur (zinc uptake regulator) (Corynebacterium diphtheriae (strain of …, UniProt Q6NG23 1-142))
T1 sequence: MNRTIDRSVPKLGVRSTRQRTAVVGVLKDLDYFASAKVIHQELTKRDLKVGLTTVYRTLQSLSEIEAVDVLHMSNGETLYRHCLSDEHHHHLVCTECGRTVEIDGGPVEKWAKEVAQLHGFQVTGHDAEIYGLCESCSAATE


Columns and labels:
[1] = target: T1, Zur (zinc uptake regulator); assay: EMSA; 250 uM EDTA; 100 nM Zur, 1 nM oligo duplex; 10 mM Tris pH 7.5, 55 mM KCl, 1 mM DTT, 10% glycerol, 0.05% NP-40, 100 ug/ml BSA, 0.03 ug/ml salmon sperm DNA, 5 uM ZnCl2 (or Zn/EDTA titration 0.25-250 uM); temperature not stated; conditions: protein: recombinant; tags: His-tag (pET30a); chain copies: 2; label: 5' biotin on strand 1; blunt
[2] = target: T1, Zur (zinc uptake regulator); assay: EMSA; 5 uM ZnCl2; 100 nM Zur, 1 nM oligo duplex; 10 mM Tris pH 7.5, 55 mM KCl, 1 mM DTT, 10% glycerol, 0.05% NP-40, 100 ug/ml BSA, 0.03 ug/ml salmon sperm DNA, 5 uM ZnCl2 (or Zn/EDTA titration 0.25-250 uM); temperature not stated; conditions: protein: recombinant; tags: His-tag (pET30a); chain copies: 2; label: 5' biotin on strand 1; blunt

Binder	binding result [1]	binding result [2]
cmrA (dip2325) site (dsDNA) DNA 1: CCCAATTATCGGTAATTATTTTCATTAAAAGGG DNA 2: CCCTTTTAATGAAAATAATTACCGATAATTGGG	binds	–
cztA (dip1101) site 1 (dsDNA) DNA 1: GGGTATCAGTACACATTATTTTCAATAAAGCCC DNA 2: GGGCTTTATTGAAAATAATGTGTACTGATACCC	–	binds
iutA (dip0169) DtxR binding site (dsDNA) DNA 1: CCCTGTTTTAGCTTAGCCCTAGCTAATTTGGGG DNA 2: CCCCAAATTAGCTAGGGCTAAGCTAAAACAGGG	–	no binding
adhA (dip2114) site (dsDNA) DNA 1: CCCTTCTAATGGTACCTATTTTCAATAGGTGGG DNA 2: CCCACCTATTGAAAATAGGTACCATTAGAAGGG	binds	–
cztA (dip1101) site 2 (dsDNA) DNA 1: GGGCATAAATGAAAATATGGGCTATGCTGCCCC DNA 2: GGGGCAGCATAGCCCATATTTTCATTTATGCCC	–	binds
